T1: sortilin (Homo sapiens, UniProt Q99523)
T1 construct: expressed in transfected cells; host or cells: HEK 293 cells (proBDNF) / 293T cells (proNGF)
T1 sequence (Q99523 78-831): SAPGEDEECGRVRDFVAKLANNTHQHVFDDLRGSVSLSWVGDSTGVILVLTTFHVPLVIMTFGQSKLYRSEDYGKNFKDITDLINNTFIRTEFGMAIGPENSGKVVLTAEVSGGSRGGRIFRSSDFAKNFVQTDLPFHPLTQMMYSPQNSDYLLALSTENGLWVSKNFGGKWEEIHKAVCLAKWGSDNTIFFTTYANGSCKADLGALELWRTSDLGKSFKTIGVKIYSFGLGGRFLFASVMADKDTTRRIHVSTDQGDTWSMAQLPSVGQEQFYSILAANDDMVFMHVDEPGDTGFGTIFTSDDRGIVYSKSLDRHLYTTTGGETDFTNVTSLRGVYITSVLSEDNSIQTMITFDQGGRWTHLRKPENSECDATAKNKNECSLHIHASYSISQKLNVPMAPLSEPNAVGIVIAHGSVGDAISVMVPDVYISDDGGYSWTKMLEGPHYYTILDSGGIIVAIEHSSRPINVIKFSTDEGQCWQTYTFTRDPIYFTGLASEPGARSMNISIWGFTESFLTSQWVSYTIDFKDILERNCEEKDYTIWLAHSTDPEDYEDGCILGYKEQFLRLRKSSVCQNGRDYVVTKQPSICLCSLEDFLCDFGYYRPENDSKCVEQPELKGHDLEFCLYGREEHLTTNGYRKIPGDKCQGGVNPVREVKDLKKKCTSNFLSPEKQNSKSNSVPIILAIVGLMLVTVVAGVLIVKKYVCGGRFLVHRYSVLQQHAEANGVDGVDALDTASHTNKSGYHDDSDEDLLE


Assays:
SorCS2 = target: T2, SorCS2 (Homo sapiens, UniProt Q96PQ0); experiment: Co-immunoprecipitation of proNT with SorCS2 in transfected 293 cells; format: binding; conditions: 293 cells co-transfected with proNT and myc-SorCS2; IP-Western blot
T2 construct: expressed in transfected cells; host or cells: HEK 293 cells (proBDNF) / 293T cells (proNGF)
T2 sequence (Q96PQ0 51-1159): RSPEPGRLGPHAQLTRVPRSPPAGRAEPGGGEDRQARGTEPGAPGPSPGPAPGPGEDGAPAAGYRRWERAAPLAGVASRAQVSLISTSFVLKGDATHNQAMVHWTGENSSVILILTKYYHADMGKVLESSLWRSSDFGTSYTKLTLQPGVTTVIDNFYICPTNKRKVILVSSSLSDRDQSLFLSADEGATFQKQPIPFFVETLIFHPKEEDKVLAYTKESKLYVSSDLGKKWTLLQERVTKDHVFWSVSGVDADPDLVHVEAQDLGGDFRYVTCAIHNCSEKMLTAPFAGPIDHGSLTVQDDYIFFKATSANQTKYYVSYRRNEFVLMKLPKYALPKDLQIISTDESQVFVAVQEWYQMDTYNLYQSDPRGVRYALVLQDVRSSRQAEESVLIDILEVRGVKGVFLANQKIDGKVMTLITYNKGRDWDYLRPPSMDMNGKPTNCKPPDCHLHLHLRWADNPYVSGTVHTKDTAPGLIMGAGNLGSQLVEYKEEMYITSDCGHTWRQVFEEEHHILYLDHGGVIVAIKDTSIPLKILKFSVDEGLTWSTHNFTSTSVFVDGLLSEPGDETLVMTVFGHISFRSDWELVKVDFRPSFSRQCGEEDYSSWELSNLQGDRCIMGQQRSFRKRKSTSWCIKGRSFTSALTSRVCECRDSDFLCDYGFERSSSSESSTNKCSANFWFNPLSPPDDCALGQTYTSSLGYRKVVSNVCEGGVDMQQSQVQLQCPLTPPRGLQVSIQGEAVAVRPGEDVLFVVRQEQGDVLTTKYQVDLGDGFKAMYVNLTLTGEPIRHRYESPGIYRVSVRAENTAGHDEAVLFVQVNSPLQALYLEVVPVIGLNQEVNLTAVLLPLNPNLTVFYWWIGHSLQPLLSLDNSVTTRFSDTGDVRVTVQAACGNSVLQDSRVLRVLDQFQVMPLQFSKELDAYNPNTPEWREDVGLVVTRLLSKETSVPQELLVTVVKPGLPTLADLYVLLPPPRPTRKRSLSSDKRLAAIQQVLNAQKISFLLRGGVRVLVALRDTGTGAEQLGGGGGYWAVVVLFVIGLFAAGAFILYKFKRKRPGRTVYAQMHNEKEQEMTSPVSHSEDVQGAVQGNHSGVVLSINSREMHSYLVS
Experimental: (§1) FIG. 2A-G. ProNTs induce growth cone collapse. (A, B) DIV3 hippocampal neurons transfected with LifeAct-RFP were imaged by time-lapse microscopy before (top panel) and starting approximately 2 min after (bottom panel) treatment with proBDNF (A) or proNGF (B). Actin dynamics stalled upon proNT treatment and subsequently the growth cone collapsed. Time is indicated in (min:sec). Scale bars, 10 μm. (C, D) DIV3 hippocampal cultures were fixed and stained for p75^NTR (C) and SorCS2 (D). Arrows highlight growth cones. Scale bars, 20 μm. (E) Brain sections from 6-week old C57/BL6 mice were stained for SorCS2. DG, dentate gyrus. Arrows highlight expression in dentate granule dendrites. Scale bar, 200 μm. (F) Both sortilin and SorCS2 interact with proBDNF. HEK 293 cells were transfected with proBDNF-HA and myc-sortilin or mycSorCS2, lysates were immunoprecipitated with anti-HA agarose and analyzed by Western blot with indicated antibodies. (G) IP-WB from 293T cells showing interactions between proNGF and sortilin and SorCS2.
(§2) The LifeAct sequence (RIEDL, J. et al., Nat Methods 5:605-607 (2008)) was cloned into the pEGFP-N1 backbone (Clontech) using the BglII and BamHI restriction sites. Trio constructs were described previously (FERRARO, F. et al., Mol Biol Cell 18:4813-4825 (2007)), human sortilin cDNA or human SorCS2 cDNA was subcloned into the pcDNA3.1 hygro expression vector (Invitrogen). […]

sortilin = target: T1, sortilin; experiment: Co-immunoprecipitation of proNT with sortilin in transfected 293 cells; format: binding; conditions: 293 cells co-transfected with proNT and myc-sortilin; IP-Western blot
Experimental: as §1, §2

p75^NTR/SorCS2 and Trio = target: T3, p75^NTR/SorCS2 and Trio (Homo sapiens, UniProt P08138+Q96PQ0); experiment: Co-immunoprecipitation of Trio with p75NTR/SorCS2 after proNT treatment of HT1080 cells; format: cell-based; conditions: HT1080 cells expressing p75NTR and SorCS2; 20 min incubation; IP anti-p75NTR, Western blot
T3 construct: HA; expressed in transfected cells; host or cells: HT-1080 cells
T3 sequence (P08138 29-427): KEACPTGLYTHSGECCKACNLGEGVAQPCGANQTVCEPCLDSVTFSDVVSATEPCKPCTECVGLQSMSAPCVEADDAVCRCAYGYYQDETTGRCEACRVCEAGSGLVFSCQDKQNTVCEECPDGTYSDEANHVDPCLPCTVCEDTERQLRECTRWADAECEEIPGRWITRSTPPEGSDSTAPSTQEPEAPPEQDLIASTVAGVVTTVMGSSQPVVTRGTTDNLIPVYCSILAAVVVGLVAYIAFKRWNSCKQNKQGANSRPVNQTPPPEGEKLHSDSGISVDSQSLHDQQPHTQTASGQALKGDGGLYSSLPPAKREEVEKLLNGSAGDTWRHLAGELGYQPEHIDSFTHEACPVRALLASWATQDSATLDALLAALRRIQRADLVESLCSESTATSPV
T3 sequence (Q96PQ0 70-1159 limits assumed): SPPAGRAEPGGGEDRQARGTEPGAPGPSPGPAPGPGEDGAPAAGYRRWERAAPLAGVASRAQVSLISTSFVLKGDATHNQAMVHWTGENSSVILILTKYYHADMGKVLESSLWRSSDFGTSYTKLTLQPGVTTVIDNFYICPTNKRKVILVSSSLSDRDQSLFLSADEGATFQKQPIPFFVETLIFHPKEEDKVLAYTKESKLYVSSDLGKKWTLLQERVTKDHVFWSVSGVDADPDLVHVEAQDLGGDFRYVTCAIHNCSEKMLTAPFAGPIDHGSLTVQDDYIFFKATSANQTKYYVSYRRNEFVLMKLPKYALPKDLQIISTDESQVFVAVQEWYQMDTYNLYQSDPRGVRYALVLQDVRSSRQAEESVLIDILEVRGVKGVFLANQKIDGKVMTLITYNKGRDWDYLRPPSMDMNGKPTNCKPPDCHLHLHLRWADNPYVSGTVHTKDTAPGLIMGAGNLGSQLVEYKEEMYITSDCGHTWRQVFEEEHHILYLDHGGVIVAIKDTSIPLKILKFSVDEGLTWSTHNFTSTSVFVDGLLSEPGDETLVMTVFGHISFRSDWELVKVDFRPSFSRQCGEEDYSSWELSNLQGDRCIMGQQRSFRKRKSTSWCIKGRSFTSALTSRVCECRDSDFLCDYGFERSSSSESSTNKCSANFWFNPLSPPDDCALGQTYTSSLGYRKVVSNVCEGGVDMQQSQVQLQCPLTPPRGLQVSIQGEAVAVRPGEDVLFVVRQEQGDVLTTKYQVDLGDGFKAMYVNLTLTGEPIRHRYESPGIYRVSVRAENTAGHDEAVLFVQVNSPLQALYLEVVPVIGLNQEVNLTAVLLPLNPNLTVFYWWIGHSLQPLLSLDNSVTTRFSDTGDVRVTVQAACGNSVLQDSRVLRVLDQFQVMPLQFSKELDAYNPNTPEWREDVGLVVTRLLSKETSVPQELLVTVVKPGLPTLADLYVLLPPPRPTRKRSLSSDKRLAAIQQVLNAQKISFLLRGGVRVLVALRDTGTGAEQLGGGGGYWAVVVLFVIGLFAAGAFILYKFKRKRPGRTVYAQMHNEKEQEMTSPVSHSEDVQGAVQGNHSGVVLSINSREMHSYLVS
Experimental: HT-1080 cells were transfected with HA-p75^NTR and myc-SorCS2. 24-48 hours later, cells were treated with 25 ng/ml proNGF for 20 min where indicated. Cells were lysed with lysis buffer (50 mM Tris-HCl pH 8.0, 140 mM NaCl, 2 mM EDTA, 1% NP40, 10% glycerol) supplemented with protease inhibitors and complexes were immunoprecipitated using anti-HA agarose. To map the Trio domain required for the interaction with p75^NTR, 293T cells were transfected with HA-p75^NTR and constructs of the individual Trio domains. After 24 hours, cells were lysed as described above, and complexes were immunoprecipitated using anti-HA agarose or anti-Myc agarose as indicated.

| Molecule | interaction with SorCS2 (co-immunoprecipitation) (SorCS2) | interaction with sortilin (co-immunoprecipitation) (sortilin) | interaction between p75NTR/SorCS2 and Trio (p75^NTR/SorCS2 and Trio) |
| --- | --- | --- | --- |
| proNGF: proneurotrophin precursor of nerve growth factor, produced in Sf9 cells and purified | co-immunoprecipitated with both sortilin and SorCS2 | co-immunoprecipitated with both sortilin and SorCS2 | markedly reduced the interaction |
| proBDNF: murine proBDNF collected from supernatants of transfected 293 cells (protein) APMKEVNVHGQGNLAYPGVRTHGTLESVNGPRAGSRGLTTTSLADTFEHVIEELLDEDQKVRPNEENHKDADLYTSRVMLSSQVPLEPPLLFLLEEYKNYLDAANMSMRVRRHSDPARRGELSVCDSISEWVTAADKKTAVDMSGGTVTVLEKVPVSKGQLKQYFYETKCNPMGYTKEGCRGIDKRHWNSQCRTTQSYVRALTMDSKKRIGWRFIRIDTSCVCTLTIKRGR | interact | interact | markedly reduced the interaction |

From patent publication US20130336988A1, “METHODS FOR TREATING EARLY STAGE OR MILD NEUROLOGICAL DISORDERS” (NEW YORK UNIVERSITY, priority 2010, published 2013)
